{"source": "paper doi:10.1101/2021.09.13.460076", "biological_target": "ADDomer-SpyTag (ADD-ST) particle (human adenovirus type 3)", "experiment": "covalent adduct on SDS-PAGE"}
{"substance": "SpyCatcher (SC) (designed binder)", "values": [{"measurement": "stoichiometry N (copies per particle)", "value": 60}]}
